# Molecular target: GST-EVH1 domain of VASP (UniProt P50552 1-113)
# Experiment: pull-down
# Sequence of GST-EVH1 domain of VASP (P50552 1-113): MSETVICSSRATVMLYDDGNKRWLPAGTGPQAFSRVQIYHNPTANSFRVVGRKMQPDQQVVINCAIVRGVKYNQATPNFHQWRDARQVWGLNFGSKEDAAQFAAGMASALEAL
binder,measurement,value
"endogenous TRIM9 (mouse embryonic cortex) (natural protein, mouse (endogenous in embryonic cortex), UniProt Q8C7M3 1-817, looked up) MEEMEEELKCPVCGSFYREPIILPCSHNLCQACARNILVQTPESESPQSRRASGSGVSDYDYLDLDKMSLYSEADSGYGSYGGFASAPTTPCQKSPNGVRVFPPAMPPPPTHLSPALAPVPRNSCITCPQCHRSLILDDRGLRGFPKNRVLEGVIDRYQQSKAAALKCQLCEKAPKEATVMCEQCDVFYCDPCRLRCHPPRGPLAKHRLVPPAQGRVSRRLSPRKVSTCTDHELENHSMYCVQCKMPVCYQCLEEGKHSSHEVKALGAMWKLHKSQLSQALNGLSDRAKEAKEFLVQLRTMVQQIQENSVEFEACLVAQCDALIDALNRRKAQLLARVNKEHEHKLKVVRDQISHCTVKLRQTTGLMEYCLEVIKENDPSGFLQISDALIRRVHLTEDQWGKGTLTPRMTTDFDLSLDNSPLLQSIHQLDFVQVKASSPVPATPILQLEECCTHNNSATLSWKQPPLSTVAADGYILELDDGSGGQFREVYVGKETMCTVDGLHFNSTYNARVKAFNKTGVSPYSKTLVLQTSEAAGAHETKPMKDTDSEEQTLPFPVPSERLPLRRMSPFSSTLNLQPSFPGRSYFDFRSSPHQLSLHSSLQSLNAPGCNFETQSASYSQLVDIKKLLAVAWFAFDPGSAHSDIIFSNDNLTVTCSSYDDRVVLGKTGFSKGVHYWELTIDRYDNHPDPAFGVARIDVMKDMMLGKDDKAWAMYVDNNRSWFMHNNSHTNRTEGGITKGATIGVLLDLNRKTLTFFVNNEQQGPIAFENVEGLFFPAVSLNRNVQVSLWAPGLRACSGCYFKVCPGAVKSPQAPAP","fold change of TRIM9 precipitated, Trim67-/- lysate against WT lysate",~2 fold

# From paper PMC7039193 (The Journal of Cell Biology, 2019)
